Test results: the supplement of paper PMC10567573

B1: ZNF511 (parent)
chain: HLYPADFRFDKPKKSRSPASAEAP

Variants of: B1
Assay: protein stability index of a GFP-peptide fusion (GPS, HEK-293T) (PSI 1-6); higher = more stable
Details: c terminus: a fixed tail appended
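Note: lentivirally expressed fusions sorted by FACS into six bins by GFP to DsRed ratio, PSI derived from sequencing read proportions per bin multiplied by bin number.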

Variant | protein stability index
HLYPADFRFDKPKKSRSPASAEGP | 3.28
HLYPADFRFDKPKKSRSPASAEMP | 2.53
HLYPADFRFDKPKKSRSPASAEPP | 3.37
HLYPADFRFDKPKKSRSPASAEWP | 2.82
HLYPADFRFDKPKKSRSPAAAEAP | 3.32
HLYPADFRFDKPKKSRSPAFAEAP | 2.22
HLYPADFRFDKPKKSRSPAGAEAP | 2.85
HLYPADFRFDKPKKSRSPAQAEAP | 2.42
HLYPADFRFDKPKKSRSPARAEAP | 2.97
HLYPADFRFDKPKKSRSPAIAEAP | 2.64
HLYPADFRFDKPKKSRSPAKAEAP | 2.71
HLYPADFRFDKPKKSRSPACAEAP | 2.92
HLYPADFRFDKPKKSRSPAWAEAP | 1.8
HLYPADFRFDKPKKSRSPANAEAP | 3.36
HLYPADFRFDKPKKSRSPADAEAP | 2.97
HLYPADFRFDKPKKSRSPAVAEAP | 2.82
HLYPADFRFDKPKKSRSPAHAEAP | 2.69
HLYPADFRFDKPKKSRSPAYAEAP | 2.61
HLYPADFRFDKPKKSRSPALAEAP | 2.51
HLYPADFRFDKPKKSRSPAEAEAP | 2.78
HLYPADFRFDKPKKSRSPATAEAP | 3.07
HLYPADFRFDKPKKSRSPAMAEAP | 2.68
HLYPADFRFDKPKKSRSPAPAEAP | 2.72
HLYPADFRFDKPKKSRSPASTEAP | 2.75

Variant | protein stability index
HLYPADFRFDKPKKSRSPASCEAP | 3.1
HLYPADFRFDKPKKSRSPASMEAP | 3
HLYPADFRFDKPKKSRSPASVEAP | 2.71
HLYPADFRFDKPKKSRSPASNEAP | 2.96
HLYPADFRFDKPKKSRSPASDEAP | 2.72
HLYPADFRFDKPKKSRSPASWEAP | 2.28
HLYPADFRFDKPKKSRSPASREAP | 2.84
HLYPADFRFDKPKKSRSPASYEAP | 2.95
HLYPADFRFDKPKKSRSPASGEAP | 3
HLYPADFRFDKPKKSRSPASEEAP | 3.08
HLYPADFRFDKPKKSRSPASKEAP | 2.81
HLYPADFRFDKPKKSRSPASIEAP | 2.82
HLYPADFRFDKPKKSRSPASLEAP | 2.38
HLYPADFRFDKPKKSRSPASSEAP | 3.4
HLYPADFRFDKPKKSRSPASHEAP | 3.12
HLYPADFRFDKPKKSRSPASPEAP | 3.11
HLYPADFRFDKPKKSRSPASFEAP | 3.18
HLYPADFRFDKPKKSRSPASQEAP | 3.67
HLYPADFRFDKPKKSRSPASASAP | 2.83
HLYPADFRFDKPKKSRSPASAIAP | 2.93
HLYPADFRFDKPKKSRSPASAQAP | 2.61
HLYPADFRFDKPKKSRSPASAPAP | 2.91
HLYPADFRFDKPKKSRSPASARAP | 2.43
HLYPADFRFDKPKKSRSPASALAP | 2.58

Variant | protein stability index
HLYPADFRFDKPKKSRSPASAMAP | 2.19
HLYPADFRFDKPKKSRSPASAAAP | 2.7
HLYPADFRFDKPKKSRSPASATAP | 2.64
HLYPADFRFDKPKKSRSPASADAP | 2.99
HLYPADFRFDKPKKSRSPASAGAP | 3.13
HLYPADFRFDKPKKSRSPASAWAP | 2.44
HLYPADFRFDKPKKSRSPASAYAP | 2.34
HLYPADFRFDKPKKSRSPASACAP | 2.67
HLYPADFRFDKPKKSRSPASANAP | 2.9
HLYPADFRFDKPKKSRSPASAFAP | 2.52
HLYPADFRFDKPKKSRSPASAHAP | 2.63
HLYPADFRFDKPKKSRSPASAKAP | 2.69
HLYPADFRFDKPKKSRSPASAVAP | 2.7
HLYPADFRFDKPKKSRNPASAEAP | 3.16
HLYPADFRFDKPKKSRLPASAEAP | 2.9
HLYPADFRFDKPKKSRTPASAEAP | 2.97
HLYPADFRFDKPKKSRYPASAEAP | 2.29
HLYPADFRFDKPKKSRGPASAEAP | 2.63
HLYPADFRFDKPKKSRKPASAEAP | 3.01
HLYPADFRFDKPKKSRQPASAEAP | 3
HLYPADFRFDKPKKSRMPASAEAP | 2.77
HLYPADFRFDKPKKSRHPASAEAP | 2.86
HLYPADFRFDKPKKSRRPASAEAP | 3.29
HLYPADFRFDKPKKSRVPASAEAP | 2.28

Variant | protein stability index
HLYPADFRFDKPKKSRPPASAEAP | 2.83
HLYPADFRFDKPKKSRWPASAEAP | 2.27
HLYPADFRFDKPKKSRIPASAEAP | 2.03
HLYPADFRFDKPKKSRSPGSAEAP | 3.02
HLYPADFRFDKPKKSRSPFSAEAP | 2.05
HLYPADFRFDKPKKSRSPKSAEAP | 3.54
HLYPADFRFDKPKKSRSPCSAEAP | 2.63
HLYPADFRFDKPKKSRSPSSAEAP | 3.44
HLYPADFRFDKPKKSRSPTSAEAP | 3.29
HLYPADFRFDKPKKSRSPRSAEAP | 2.81
HLYPADFRFDKPKKSRSPLSAEAP | 2.88
HLYPADFRFDKPKKSRSPDSAEAP | 3.36
HLYPADFRFDKPKKSRSPQSAEAP | 2.56
HLYPADFRFDKPKKSRSPMSAEAP | 2.7
HLYPADFRFDKPKKSRSPISAEAP | 2.74
HLYPADFRFDKPKKSRSPYSAEAP | 2.69
HLYPADFRFDKPKKSRSPHSAEAP | 2.68
HLYPADFRFDKPKKSRSPNSAEAP | 2.56
HLYPADFRFDKPKKSRSPWSAEAP | 2
HLYPADFRFDKPKKSRSPESAEAP | 2.97
HLYPADFRFDKPKKSRSPPSAEAP | 3.18
HLYPADFRFDKPKKSRSPVSAEAP | 2.87
